B1: SWM peptide 101-112-[G108] (peptide)
peptide: IKYLEFIGEAII
B2: SWM peptide 102-113-[G108] (peptide)
peptide: KYLEFIGEAIIH
B3: SWM peptide 103-114-[G108] (peptide)
peptide: YLEFIGEAIIHV
B4: SWM peptide 104-115-[G108] (peptide)
peptide: LEFIGEAIIHVL
B5: sperm whale myoglobin (SWM) peptide 105-116 (peptide)
peptide: EFISEAIIHVLH
B6: SWM peptide 105-116-[G107] (peptide)
peptide: EFGSEAIIHVLH
B7: SWM peptide 105-116-[P113] (peptide)
peptide: EFISEAIIPVLH
B8: SWM peptide 105-116-[L114] (peptide)
peptide: EFISEAIIHLLH
B9: SWM peptide 105-116-[I114] (peptide)
peptide: EFISEAIIHILH
B10: sperm whale myoglobin (SWM) peptide 110-121 (peptide)
peptide: AIIHVLHSRHPG

Target: MHC class II molecule I-Ad (mouse (endogenous in A20 lymphoma cells))
Assay: radioligand binding
Conditions: for relative binding to MHC: scale: relative to unlabeled OVA peptide 323-339

Molecule | relative binding to MHC | IC50
SWM peptide 105-116-[G108] (from UniProt P02185 106-117) | 0.1 | –
OVA peptide 323-339 (unlabeled) (from UniProt P01012 324-340) | – | 131 nM
B1 | 0.003 | –
B2 | 0.011 | –
B3 | 0.04 | –
B4 | 0.013 | –
B5 | 1.5 | –
B6 | 0.34 | –
B7 | 1.8 | –
B8 | 0.18 | –
B9 | 0.01 | –
B10 | 0.59 | –
